Here are results for six molecules from patent publication US10314925B2, “Thymidine kinase” (priority 2004, dated 2019).

Data set [1] relates to circulating modified cells. The settings on record: six patients who developed GvHD and received ganciclovir; cited from earlier work.
Data set [2] has as its system HSV-tk. Briefly: RT-PCR of HSV-tk mutants, RNA from Am12 supernatants. Also noted: species or system HSV-1. The note with it: for lower band (spliced form): TKA1/TKB1 primers. From the text:
After sequence confirmation of SFCMM-3 HSV-tk mutants (FIGS. 1A-1C), one plasmid clone of each type was used to transiently transfect E86 cells. SFCMM-3 and TK3 plasmids were used as controls. The supernatant was collected from the E86 cultures and used to stably transduce the amphotropic packaging cell line Am12 as described in Materials and Methods section of Example 2. The resulting cell populations were selected for ΔLNGFR expression.
RNA was extracted from the E86 as well as Am12 culture supernatants containing infectious retroviral particles. RT-PCR reactions were carried out on RNA from E86 and Am12 supernatants using TKA1 and TKB1 primers according to the protocol described in Materials and Methods section of Example 2.

Data set [3] concerns HSV-tk. Briefly: PCR of genomic DNA from transduced CEM A301 cells. Type of data set: cell-based, HSV-1. The method, then: (§1) CEM A301 cells were cultured in RPMI 1640 (Hyclone) supplemented with 10% FBS (Hyclone) and 2 mM glutamine. CEM A301 cells were infected with Am12 culture supernatant containing SFCMM-3 HSV-tk mutants 2 and 234. The day before transduction 5×10^5 cells/ml were cultured. Transduction was then performed by one centrifugation cycle of retroviral vector particles on cells. After the transduction phase, cells were collected and the percentage of actually transduced cells evaluated by FACS analysis. PBLs from three different donors were transduced (as described in Materials and Methods section of Example 2) with Am12 supernatant containing SFCMM-3 HSV-tk mutant 2 as well as SFCMM-3.
(§2) The transduced cells were then sorted for ΔLNGFR expression and expanded a few days in culture.
One pellet for PCR analysis was prepared from the transduced non selected cells as well as from transduced selected cells as described in Materials and Methods section of Example 2. Genomic DNA was extracted from pellet cells and PCR reaction was carried out with TKA1 and TKB1 or TKY1 and TKY2 or TKZ1 and TKZ2 primers (as indicated in the table below) in a 25 μl reaction mixture containing 100-500 ng of genomic DNA, 1×PCR Buffer with 1.5 mM of MgCl2 (Applied Biosystems), […] of each dNTPs, 300 nM of each primer, 1.25 Units of AmpliTaq Gold (Applied Biosystems). The PCR cycling profile consisted of a first denaturation step for 15 min at 94° C. followed by 40 cycles with denaturation for 30 s at 94° C., annealing for 50 s at 60° C. and extension for 1 min at 72° C., and one final extension step of 10 min at 72° C., […] Ten microliters of amplified product were analyzed by agarose gel electrophoresis.

Data set [4] relates to HSV-tk. Briefly: PCR of genomic DNA from transduced PBLs of three donors. Type of data set: cell-based, HSV-1. The settings on record: TKA1/TKB1 primers. As for the experimental part: as §1, §2
One pellet for PCR analysis was prepared from the transduced non selected cells as well as from transduced selected cells as described in Materials and Methods section of Example 2. […] Ten microliters of amplified product were analyzed by agarose gel electrophoresis.

Setting [5] is: CEM A301, TKA1/TKB1 primers, before and after selection.

Substitutions are numbered along the chain they refer to.

Regarding `Nc1nc(O)c2ncn(COC(CO)CO)c2n1` [ganciclovir], the “average decrease in absolute number of circulating modified cells” value in data set [1] is reported as 85%.

B1: TkMut4 (nucleic acid)
DNA: ATGGCTTCGTACCCCTGCCATCAACACGCGTCTGCGTTCGACCAGGCTGCGCGTTCTCGCGGCCATAGCAACCGACGTACGGCGTTGCGCCCTCGCCGGCAGCAAGAAGCCACGGAAGTCCGCCTGGAGCAGAAAATGCCCACGCTACTGCGGGTTTATATAGACGGTCCTCACGGGATGGGGAAAACCACCACCACGCAACTGCTGGTGGCCCTGGGTTCGCGCGACGATATCGTCTACGTACCCGAGCCGATGACTTACTGGCAGGTGCTGGGGGCTTCCGAGACAATCGCGAACATCTACACCACACAACACCGCCTCGACCAGGGTGAGATATCGGCCGGGGACGCGGCGGTGGTAATGACAAGCGCCCAGATAACAATGGGCATGCCTTATGCCGTGACCGACGCCGTTCTGGCTCCTCATGTCGGGGGGGAGGCTGGGAGTTCACATGCCCCGCCCCCGGCCCTCACCCTCATCTTCGACCGCCATCCCATCGCCGCCCTCCTGTGCTACCCGGCCGCGCGATACCTTATGGGCAGCATGACCCCCCAAGCCGTGCTGGCGTTCGTGGCCCTCATCCCGCCGACCTTGCCCGGCACAAACATCGTGTTGGGGGCCCTTCCGGAGGACAGACACATCGACCGCCTGGCCAAACGCCAGCGCCCCGGCGAGCGGCTTGACCTGGCTATGCTGGCCGCGATTCGCCGCGTTTACGGGCTGCTTGCCAATACGGTGCGGTATCTGCAGGGCGGCGGGTCGTGGTGGGAGGATTGGGGACAGCTTTCGGGGACGGCCGTGCCGCCCCAGGGTGCCGAGCCCCAGAGCAACGCGGGCCCACGACCCCATATCGGGGACACGTTATTTACCCTGTTTCGGGCCCCCGAGTTGCTGGCCCCCAACGGCGACCTGTATAACGTGTTTGCCTGGGCCTTGGACGTCTTGGCCAAACGCCTCCGTCCCATGCACGTCTTTATCCTGGATTACGACCAATCGCCCGCCGGCTGCCGGGACGCCCTGCTGCAACTTACCTCCGGGATGGTCCAGACCCACGTCACCACCCCAGGCTCCATACCGACGATCTGCGACCTGGCGCGCACGTTTGCCCGGGAGATGGGGGAGGCTAACTGA
modifications: HSV-1 thymidine kinase mutant sequence.
B1: in data set [2], the “spliced product compared to TK3 and SFCMM-3 (ethidium bromide signal)” value is recorded as “less represented”; the “lower band (spliced form)” value is “lower band is detected”.

B2: TkMut2 (nucleic acid)
DNA: B1 DNA with T330C, A555G
modifications: HSV-1 thymidine kinase mutant sequence.
For B2, the additional bands entry in data set [2] is “two very weak bands of approximately 100 and 200 bp are detected”. Further, the “lower band (spliced form)” value in data set [2] is “not detected”. The “lower band (spliced form of HSV-tk gene)” value in data set [3] (setting [5]) is “No lower band is observed”; in data set [3] (CEM A301, TKY1/TKY2 and TKZ1/TKZ2 primers), “No lower band is observed”; in data set [4] it was “No lower band is observed”.

B3: TkMut34 (nucleic acid)
DNA: B1 DNA with A541T, G542C
modifications: HSV-1 thymidine kinase mutant sequence.
Consider B3, for which, in data set [2], the “spliced product compared to TK3 and SFCMM-3 (ethidium bromide signal)” value is “less represented”; the “lower band (spliced form)” value is recorded as “lower band is detected”.

B4: TkMut24 (nucleic acid)
DNA: B1 DNA with T330C
modifications: HSV-1 thymidine kinase mutant sequence.
Regarding B4, in data set [2], the additional bands result was “two very weak bands of approximately 100 and 200 bp are detected”; the “lower band (spliced form)” value is given as “not detected”.

B5: TkMut234 (nucleic acid)
DNA: B1 DNA with T330C, A541T, G542C
modifications: HSV-1 thymidine kinase mutant sequence.
Regarding B5, in data set [2], the additional bands entry is “two very weak bands of approximately 100 and 200 bp are detected”; the “lower band (spliced form)” value was “not detected”. Also, the “lower band (spliced form of HSV-tk gene)” value in data set [3] (setting [5]) is reported as “No lower band is observed”.
